Test results taken from patent US20240181007A1, “COMPOSITIONS AND METHODS FOR TREATING PULMONARY HYPERTENSION” (Acceleron Pharma Inc., priority 2021, published 2024).

T1: BMP9 (UniProt Q9UK05 320-429)
T1 sequence (looked up): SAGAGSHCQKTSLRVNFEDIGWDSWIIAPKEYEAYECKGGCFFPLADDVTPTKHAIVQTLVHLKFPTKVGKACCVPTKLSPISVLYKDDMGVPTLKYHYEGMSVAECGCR

T2: GDF11 (UniProt O95390 299-407)
T2 construct: also called Growth and differentiation factor-11; BMP11
T2 sequence (looked up): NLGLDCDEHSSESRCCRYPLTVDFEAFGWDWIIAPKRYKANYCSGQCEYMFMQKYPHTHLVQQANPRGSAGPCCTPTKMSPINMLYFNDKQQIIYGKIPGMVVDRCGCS

T3: activin A (UniProt P08476 311-426)
T3 construct: Soluble ligand injected in SPR or added in the reporter assay
T3 sequence (looked up): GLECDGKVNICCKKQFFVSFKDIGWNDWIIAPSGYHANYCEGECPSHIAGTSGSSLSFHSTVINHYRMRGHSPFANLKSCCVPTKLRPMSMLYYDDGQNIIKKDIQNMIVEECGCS

T4: Activin A (Homo sapiens, UniProt P08476)
T4 sequence (P08476 311-426): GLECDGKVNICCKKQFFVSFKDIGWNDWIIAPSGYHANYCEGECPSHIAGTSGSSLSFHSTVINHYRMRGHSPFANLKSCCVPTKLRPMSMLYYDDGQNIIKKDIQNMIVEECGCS

T5: BMP10 (Homo sapiens, UniProt O95393)
T5 sequence (O95393 317-424): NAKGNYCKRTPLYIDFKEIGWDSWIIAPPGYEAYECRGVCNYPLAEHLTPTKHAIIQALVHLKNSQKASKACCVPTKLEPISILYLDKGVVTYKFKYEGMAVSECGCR

T6: Activin B (Homo sapiens, UniProt P09529)
T6 sequence (P09529 293-407): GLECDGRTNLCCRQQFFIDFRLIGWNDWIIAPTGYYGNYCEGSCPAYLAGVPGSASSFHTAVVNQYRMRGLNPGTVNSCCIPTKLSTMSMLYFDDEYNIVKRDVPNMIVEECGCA

T7: BMP9 (Homo sapiens, UniProt Q9UK05)
T7 sequence (Q9UK05 320-429): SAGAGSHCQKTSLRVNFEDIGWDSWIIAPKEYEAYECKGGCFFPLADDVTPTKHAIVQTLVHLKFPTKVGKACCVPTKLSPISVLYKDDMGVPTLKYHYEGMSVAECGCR

T8: GDF11 (Homo sapiens, UniProt O95390)
T8 sequence (O95390 299-407): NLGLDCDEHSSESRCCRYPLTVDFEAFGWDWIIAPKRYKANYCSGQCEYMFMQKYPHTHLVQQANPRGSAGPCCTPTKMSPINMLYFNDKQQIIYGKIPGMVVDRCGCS

T9: GDF8 (Homo sapiens, UniProt O14793)
T9 sequence (O14793 267-375): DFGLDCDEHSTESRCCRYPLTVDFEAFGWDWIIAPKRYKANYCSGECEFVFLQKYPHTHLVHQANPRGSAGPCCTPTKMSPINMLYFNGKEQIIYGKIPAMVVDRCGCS

T10: BMP6 (Homo sapiens, UniProt P22004)
T10 sequence (P22004 375-513): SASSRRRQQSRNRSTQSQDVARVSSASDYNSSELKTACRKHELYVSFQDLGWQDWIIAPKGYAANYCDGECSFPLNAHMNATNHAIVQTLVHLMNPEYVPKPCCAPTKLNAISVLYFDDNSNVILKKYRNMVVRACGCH

T11: GDF3 (Homo sapiens, UniProt Q9NR23)
T11 sequence (Q9NR23 251-364): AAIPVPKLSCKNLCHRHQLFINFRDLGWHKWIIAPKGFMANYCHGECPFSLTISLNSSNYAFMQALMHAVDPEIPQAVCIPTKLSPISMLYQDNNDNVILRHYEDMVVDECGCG


Assays:
BMP9 [1] = molecular target: T1, BMP9; assay: cell-based or functional assay
GDF11 [2] = molecular target: T2, GDF11; assay: cell-based or functional assay
activin A [3] = molecular target: T3, activin A; assay: cell-based or functional assay
Activin A [4] = molecular target: T4, Activin A; assay: Biacore-based binding assay (surface plasmon resonance), activin A; conditions: for activin A binding compared to ActRIIB-G1Fc (in words): FIGS. 8A and 8B
Protocol: (§1) To determine ligand binding profiles of variant ActRIIB-Fc homodimers, a Biacore™-based binding assay was used to compare ligand binding kinetics of certain variant ActRIIB-Fc polypeptides. ActRIIB-Fc polypeptides to be tested were independently captured onto the system using an anti-Fc antibody. Ligands were then injected and allowed to flow over the captured receptor protein. ActRIIB-G1Fc was used as the control polypeptide.
as §1, with “protein.” for “protein. ActRIIB-G1Fc was used as the control polypeptide.”
(§2) A Biacore™-based binding assay was used to compare the ligand binding kinetics of an ActRIIB-Fc:ActRIIB(L79E)-Fc heterodimer with those of unmodified ActRIIB-Fc homodimer. Fusion proteins were captured onto the system using an anti-Fc antibody. Ligands were then injected and allowed to flow over the captured receptor protein at 37° C. Results are summarized in the table below, in which ligand off-rates (kd) most indicative of effective ligand traps are denoted in bold.

BMP10 = molecular target: T5, BMP10; assay: Biacore-based binding assay (surface plasmon resonance), BMP10; conditions: for BMP10 binding compared to ActRIIB-G1Fc (in words): FIGS. 8A and 8B
Protocol: as §1, §2

Activin B = molecular target: T6, Activin B; assay: Biacore-based binding assay (surface plasmon resonance), activin B; conditions: for affinity for activin B compared to unmodified ActRIIB-Fc (in words): SPR 37° C., compared to ActRIIB-G1Fc / ActRIIB-Fc homodimer
Protocol: as §1, §2

BMP9 [5] = molecular target: T7, BMP9; assay: Biacore-based binding assay (surface plasmon resonance), BMP9; conditions: for binding to BMP9 compared to unmodified ActRIIB-Fc (in words): SPR 37° C., compared to ActRIIB-G1Fc / ActRIIB-Fc homodimer
Protocol: as §1
as §1, with “protein.” for “protein. ActRIIB-G1Fc was used as the control polypeptide.”
as §2

GDF11 [6] = molecular target: T8, GDF11; assay: Biacore-based binding assay (surface plasmon resonance), GDF11; conditions: for GDF11 binding compared to unmodified ActRIIB-Fc (in words): SPR 37° C., compared to ActRIIB-G1Fc / ActRIIB-Fc homodimer
Protocol: as §1
as §1, with “protein.” for “protein. ActRIIB-G1Fc was used as the control polypeptide.”
as §2

GDF8 = molecular target: T9, GDF8; assay: Biacore-based binding assay (surface plasmon resonance), GDF8; conditions: for GDF8 binding compared to unmodified ActRIIB-Fc (in words): SPR 37° C., compared to ActRIIB-G1Fc / ActRIIB-Fc homodimer
Protocol: as §1, §2

BMP6 = molecular target: T10, BMP6; assay: Biacore-based binding assay (surface plasmon resonance), BMP6
Protocol: as §2

GDF3 = molecular target: T11, GDF3; assay: Biacore-based binding assay (surface plasmon resonance), GDF3; conditions: 37° C., capture by anti-Fc antibody
Protocol: as §2

[7] = 37° C., capture by anti-Fc antibody
[8] = 37° C., capture by anti-Fc antibody, Transient*: indeterminate due to transient nature of interaction

Row | Molecule | IC50 (ng/ml), A204 CAGA12 luciferase reporter assay (BMP9 [1]) [ng/mL] | IC50 (ng/ml), A204 CAGA12 luciferase reporter assay (GDF11 [2]) [ng/mL] | IC50 (ng/ml), A204 CAGA12 luciferase reporter assay (activin A [3]) [ng/mL] | activin A binding compared to ActRIIB-G1Fc (in words) (Activin A [4]; SPR 37° C.) | BMP10 binding compared to ActRIIB-G1Fc (in words) (BMP10; SPR 37° C.) | affinity for activin B compared to unmodified ActRIIB-Fc (in words) (Activin B) | binding to BMP9 compared to unmodified ActRIIB-Fc (in words) (BMP9 [5]) | GDF11 binding compared to unmodified ActRIIB-Fc (in words) (GDF11 [6]) | GDF8 binding compared to unmodified ActRIIB-Fc (in words) (GDF8) | also measured
1 | K55R (homodimeric ActRIIB-Fc construct) (Fc fusion) | 777 | 318 | 206 | – | – | – | – | – | – | –
2 | L79H-F82K: homodimeric ActRIIB-G1Fc fusion with L79H and F82K substitutions; mature SEQ ID NO: 347 | – | – | – | significant decrease | decrease in BMP10 binding | relatively high affinity for activin B | decrease in binding to BMP9 | significant decrease in GDF8 and GDF11 binding | significant decrease in GDF8 and GDF11 binding | –
3 | L79H: homodimeric ActRIIB-G1Fc fusion with L79H substitution; mature SEQ ID NO: 344 | – | – | – | significant decrease | decrease in BMP10 binding | relatively high affinity for activin B | decrease in binding to BMP9 | – | – | –
4 | ActRIIB-Fc:ActRIIB(L79E)-Fc heterodimer: heteromeric complex of unmodified human ActRIIB-Fc and ActRIIB(L79E)-Fc, each fused to a G1Fc domain with linker (protein) chain 1: GRGEAETRECIYYNANWELERTNQSGLERCEGEQDKRLHCYASWRNSSGTIELVKKGCWEDDFNCYDRQECVATEENPQVYFCCCEGNFCNERFTHLPEAGGPEVTYEPPPTAPTGGGTHTCPPCPAPELLGGPSVFLFPPKPKDTLMISRTPEVTCVVVDVSHEDPEVKFNWYVDGVEVHNAKTKPREEQYNSTYRVVSVLTVLHQDWLNGKEYKCKVSNKALPAPIEKTISKAKGQPREPQVYTLPPSREEMTKNQVSLTCLVKGFYPSDIAVEWESNGQPENNYDTTPPVLDSDGSFFLYSDLTVDKSRWQQGNVFSCSVMHEALHNHYTQKSLSLSPG chain 2: GRGEAETRECIYYNANWELERTNQSGLERCEGEQDKRLHCYASWRNSSGTIELVKKGCWLDDFNCYDRQECVATEENPQVYFCCCEGNFCNERFTHLPEAGGPEVTYEPPPTAPTGGGTHTCPPCPAPELLGGPSVFLFPPKPKDTLMISRTPEVTCVVVDVSHEDPEVKFNWYVDGVEVHNAKTKPREEQYNSTYRVVSVLTVLHQDWLNGKEYKCKVSNKALPAPIEKTISKAKGQPREPQVYTLPPSRKEMTKNQVSLTCLVKGFYPSDIAVEWESNGQPENNYKTTPPVLKSDGSFFLYSKLTVDKSRWQQGNVFSCSVMHEALHNHYTQKSLSLSPGK | – | – | – | – | – | largely retained high-affinity binding | even greater reduction in the strength of binding to BMP9 | largely retained high-affinity binding | largely retained high-affinity binding | ka BMP6 (BMP6; [7]): 3.3e+08 M⁻¹ s⁻¹; kd BMP6 (BMP6; [7]): 0.018 s⁻¹; BMP6 binding compared to ActRIIB-Fc homodimer (in words) (BMP6; SPR 37° C.): largely retained high-affinity binding; ka Activin A (Activin A [4]; [7]): 8.8e+06 M⁻¹ s⁻¹; kd Activin A (Activin A [4]; [7]): 0.0015 s⁻¹; off-rate for activin A compared to ActRIIB-Fc homodimer (Activin A [4]; SPR 37° C.): approximately ten-fold faster off-rates; ka GDF11 (GDF11 [6]; [7]): 4e+07 M⁻¹ s⁻¹; kd GDF11 (GDF11 [6]; [7]): 0.00036 s⁻¹; ka GDF8 (GDF8; [7]): 3.4e+06 M⁻¹ s⁻¹; kd GDF8 (GDF8; [7]): 0.0005 s⁻¹; ka GDF3 (GDF3): 580000 M⁻¹ s⁻¹; kd GDF3 (GDF3): 0.0059 s⁻¹; ka BMP10 (BMP10; [7]): 4.8e+07 M⁻¹ s⁻¹; kd BMP10 (BMP10; [7]): 0.002 s⁻¹; off-rate for BMP10 compared to ActRIIB-Fc homodimer (BMP10; SPR 37° C.): approximately ten-fold faster off-rates; ka Activin B (Activin B; [7]): 8.3e+06 M⁻¹ s⁻¹; kd Activin B (Activin B; [7]): 0.00021 s⁻¹; ka BMP9 (BMP9 [5]; [8]): Transient*; kd BMP9 (BMP9 [5]; [8]): Transient*

Now from value to molecule, other results behind:

Row | IC50 (ng/ml), A204 CAGA12 luciferase reporter assay (BMP9 [1]) [ng/mL] | IC50 (ng/ml), A204 CAGA12 luciferase reporter assay (GDF11 [2]) [ng/mL] | IC50 (ng/ml), A204 CAGA12 luciferase reporter assay (activin A [3]) [ng/mL] | activin A binding compared to ActRIIB-G1Fc (in words) (Activin A [4]; SPR 37° C.) | BMP10 binding compared to ActRIIB-G1Fc (in words) (BMP10; SPR 37° C.) | affinity for activin B compared to unmodified ActRIIB-Fc (in words) (Activin B) | binding to BMP9 compared to unmodified ActRIIB-Fc (in words) (BMP9 [5]) | Molecule | GDF11 binding compared to unmodified ActRIIB-Fc (in words) (GDF11 [6]) | GDF8 binding compared to unmodified ActRIIB-Fc (in words) (GDF8) | also measured
5 | 5500 | 365 | 396 | – | – | – | – | K55D (homodimeric ActRIIB-Fc construct) (Fc fusion) | – | – | –
6 | – | – | – | significant decrease | decrease in BMP10 binding | relatively high affinity for activin B | decrease in binding to BMP9 | L79H-F82I: homodimeric ActRIIB-G1Fc fusion with L79H and F82I substitutions; mature SEQ ID NO: 341 | – | – | –
